{
  "source": "paper PMC5333157",
  "about": "(2017)",
  "parents": {"B1": {"name": "ERK4 (wild-type), GAL4 activation domain fusion [not stated] / DUSP2 (wild-type), GAL4 DNA-binding domain fusion [human] (parent complex)", "chain 1": "MAEKGDCIASVYGYDLGGRFVDFQPLGFGVNGLVLSAVDSRACRKVAVKKIALSDARSMKHALREIKIIRRLDHDNIVKVYEVLGPKGTDLQGELFKFSVAYIVQEYMETDLARLLEQGTLAEEHAKLFMYQLLRGLKYIHSANVLHRDLKPANIFISTEDLVLKIGDFGLARIVDQHYSHKGYLSEGLVTKWYRSPRLLLSPNNYTKAIDMWAAGCILAEMLTGRMLFAGAHELEQMQLILETIPVIREEDKDELLRVMPSFVSSTWEVKRPLRKLLPEVNSEAIDFLEKILTFNPMDRLTAEMGLQHPYMSPYSCPEDEPTSQHPFRIEDEIDDIVLMAANQSQLSNWDTCSSRYPVSLSSDLEWRPDRCQDASEVQRDPRAGSAPLAEDVQVDPRKDSHSSSERFLEQSHSSMERAFEADYGRSCDYKVGSPSYLDKLLWRDNKPHHYSEPKLILDLSHWKQAAGAPPTATGLADTGAREDEPASLFLEIAQWVKSTQGGPEHASPPADDPERRLSASPPGRPAPVDGGASPQFDLDVFISRALKLCTKPEDLPDNKLGDLNGACIPEHPGDLVQTEAFSKERW", "chain 2": "MGLEAARELECAALGTLLRDPREAERTLLLDCRPFLAFCRRHVRAARPVPWNALLRRRARGPPAAVLACLLPDRALRTRLVRGELARAVVLDEGSASVAELRPDSPAHVLLAALLHETRAGPTAVYFLRGGFDGFQGCCPDLCSEAPAPALPPTGDKTSRSDSRAPVYDQGGPVEILPYLFLGSCSHSSDLQGLQACGITAVLNVSASCPNHFEGLFRYKSIPVEDNQMVEISAWFQEAIGFIDWVKNSGGRVLVHCQAGISRSATICLAYLMQSRRVRLDEAFDFVKQRRGVISPNFSFMGQLLQFETQVLCH"}},
  "data": [
    {"variants_of": "B1", "assay": "yeast two-hybrid, β-galactosidase reporter assay; triplicate; read off a plot", "values": [
      {"variant": "chain 1 D320N", "response": "~16"}
    ]}
  ]
}
